Measurements published in US20030165841, “Use of phosphorothiolate polynucleotides in ligating nucleic acids” (published 2003).

T1: Topo65 (human topoisomerase I fragment, residues 215-765) (Homo sapiens, UniProt P11387 SEQ:22-572)
T1 chain: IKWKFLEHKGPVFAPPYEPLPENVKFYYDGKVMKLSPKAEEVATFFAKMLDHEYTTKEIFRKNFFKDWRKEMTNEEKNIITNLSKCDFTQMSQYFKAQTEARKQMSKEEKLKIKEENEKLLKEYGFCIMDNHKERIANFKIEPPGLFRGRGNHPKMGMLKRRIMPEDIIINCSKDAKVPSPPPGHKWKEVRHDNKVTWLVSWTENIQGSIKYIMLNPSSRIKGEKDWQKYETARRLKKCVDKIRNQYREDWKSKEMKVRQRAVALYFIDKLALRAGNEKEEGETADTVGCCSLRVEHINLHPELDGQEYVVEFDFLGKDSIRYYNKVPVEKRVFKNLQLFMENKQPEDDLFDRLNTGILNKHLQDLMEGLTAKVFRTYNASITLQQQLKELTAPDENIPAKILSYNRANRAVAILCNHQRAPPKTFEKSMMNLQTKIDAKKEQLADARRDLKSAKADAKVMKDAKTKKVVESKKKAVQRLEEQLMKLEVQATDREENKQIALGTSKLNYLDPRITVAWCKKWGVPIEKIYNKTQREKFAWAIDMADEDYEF


Experiments:
[1] = biological target: T1, Topo65 (human topoisomerase I fragment, …); assay: covalent complex by SDS-PAGE shift; enzyme reacts quantitatively
Protocol: (§1) The duplex substrates shown in FIGS. 3A and 3B were reacted overnight at room temperature with Topo65. The reaction mixtures contained 3 μM Topo65, 10 μM duplex substrate, 10 mM Tris-HCl, pH 7.5, 100 mM KCl, 10 mM MgCl2, 1 mM EDTA, and 2 mM DTT. The reaction products were adjusted to 1 M NaCl or NOT and then analyzed by 10% SDS-PAGE and Coomassie Blue staining (lanes 4-7). FIG. 4 is a photograph of the stained gel.
As a control, Topo65 was allowed to react with a duplex 22-mer suicide substrate. The suicide substrate contains a centrally positioned 5′-bridging phosphorothiolate.

[2] = biological target: T1, Topo65 (human topoisomerase I fragment, …); assay: no gel shift with single strand alone
Protocol: as §1
This experiment was repeated after removal of the DMT from the AS oligonucleotides by acid treatment, and an identical gel-shift was observed on reaction of “DMT off” oligonucleotide complexes with Topo65. However, no gel shift was observed if duplex generated from ratios of single strand oligonucleotides alone, for example, TCRIBamS, TCRIBamAS, TCRIBstBS or TCRIBstBAS alone.

Binder	binding result [1]	binding result [2]
suicide 22-mer duplex (dsDNA, 5'-bridging phosphorothiolate between GACTT and AGAAAA of top strand) DNA 1: AAAAAGACTTAGAAAAATTTTT DNA 2: AAAAATTTTTCTAAGTCTTTTT	binds	–
CGAAGTCTTTTTGCGGCCGCG (ssDNA) [TCRIBstBAS alone]	–	no binding
AATTCGCGGCCGCAAAAAGACTTCG (ssDNA, 5'-bridging phosphorothiolate 2 bases from 3' end) [TCRIBstBS alone]	–	no binding
AATTCGCGGCCGCAAAAAGACTTGATC (ssDNA, 5'-bridging phosphorothiolate 4 bases from 3' end) [TCRIBamS alone]	–	no binding
GATCAAGTCTTTTTGCGGCCGCG (ssDNA) [TCRIBamAS alone]	–	no binding
